Substrate in data set [1]: C=C(OP(=O)(O)O)C(=O)O
In words: EPSPS substrate saturation kinetics, native sorghum. The note with it: other: PEP varied; pH 7.0. The data set is classed as biochemical, Sorghum halepense. The protocol: (§1) EPSPS activity was determined by quantifying the phosphate generated from the EPSPS reaction. Release of inorganic phosphate was coupled to reaction with 2-amino-6-mercapto-7-methylpurine ribonucleoside, catalyzed by purine-nucleoside phosphorylase (M R Webb, Proc. Natl. Acad. Sci. 89:4884-4887, 1992). The absorbance change that occurs was monitored at 360 nm, where the extinction is 11,200 M^−1 cm^−1, with a Spectramax plate reader (Molecular Devices). To determine kinetic parameters, the varied substrate was present at seven concentrations (the eighth being the blank, containing no substrate) ranging from 4 to 400 uM and the unvaried substrate present at saturation. […] Reactions were monitored with a Spectramax plate reader. […] KI was then calculated from the following form of the Michaelis-Menten equation for competitive inhibition: KI=KM[I]/(KM app−KM) KM approximates the dissociation constant of the enzyme-substrate complex while kcat is the rate of conversion of substrate to product when the substrate concentration is saturating. kcat/KM is a widely accepted parameter for catalytic efficiency when substrate concentration is low (˜KM). […] The parameter kcat/KM×KI is used to quantify both catalytic efficiency and insensitivity and thus the overall fitness of the enzyme.
(§2) Native EPSPS amino acid sequences of rice (Oryza sativa) (SEQ ID NO:7), sorghum (Sorghum halepense) (SEQ ID NO:8), and sunflower (Helianthus annus) (SEQ ID NO:9) including the chloroplast transit peptide sequences were assembled and analyzed for mapping the corresponding amino acid mutations from the maize 868-H6. […]
(§3) ChloroP Prediction Server (Emanuelsson, O. et al. 1999. Protein Sci. 8(5):978-84) was used to approximate the amino terminus of the mature EPSPS proteins. […] The synthetic genes were cloned into a plasmid vector and expressed, purified and analyzed as described in Example 1.

Substrate in data set [2]: C=C(OP(=O)(O)O)C(=O)O
The data set is described as follows: Substrate saturation kinetic analysis with glyphosate, Zm-T103A. The note with it: other: substrate saturation. The data set is classed as biochemical, Zea mays.

Substrate in data set [3]: C=C(OP(=O)(O)O)C(=O)O
The data set is described as follows: EPSPS substrate saturation kinetics, rice H6. Type of data set: biochemical, Oryza sativa. The note with it: other: PEP varied; pH 7.0. The protocol: as §1, §2, §3

Substrate in data set [4]: C=C(OP(=O)(O)O)C(=O)O
The data set is described as follows: EPSPS substrate saturation kinetics, sunflower H6. The note with it: other: PEP varied; pH 7.0. Type of data set: biochemical. The protocol: as §1, §2, §3

For orientation: Km means the concentration of substrate that gives half-maximal velocity. Usually kcat stands for the number of substrate molecules converted per active site and unit of time at saturation. By kcat/Km is commonly meant the second-order rate constant that governs catalysis at low substrate concentration.

B1: Sorghum halepense EPSPS, native, SEQ ID NO:8 (Sorghum halepense) (protein)
chain: AAGAEEIVLQPIKEISGTVKLPGSKSLSNRILLLAALSEGTTVVDNLLNSEDVHYMLGALNTLGLSVEADKVAKRAVVVGCGGKFPVEDAKEEVQLFLGNAGTAMRPLTAAVTAAGGNATYVLDGVPRMRERPIGDLVVGLKQLGADVDCFLGTDCPPVRINGIGGLPGGKVKLSGSISSQYLSALLMAAPLALGDVEIEIIDKLISIPYVEMTLRLMERFGVKAEHSDSWDRFYIKGGQKYKSPKNAYVEGDASSASYFLAGAAITGGTVTVEGCGTTSLQGDVKFAEVLEMMGAKVTWTETSVTVTGPPRQPFGRKHLKAIDVNMNKMPDVAMTLAVVALFADGPTAIRDVASWRVKETERMVAIRTELTKLGASVEEGPDYCIITPPEKLNVTAIDTYDDHRMAMAFSLAACAEVPVTIRDPGCTRKTFPDYFDVLSTFVKN
On to B1, for which, in data set [1], the Km is 17.4 µM, the kcat amounted to 50.9 s⁻¹ and the kcat/Km was found to be 2.93e+06 M⁻¹ s⁻¹.

B2: Zea mays EPSPS variant Zm-T103A (Zea mays; T102A) (protein)
chain: MAGAEEIVLQPIKEISGTVKLPGSKSLSNRILLLAALSEGTTVVDNLLNSEDVHYMLGALRTLGLSVEADKAAKRAVVVGCGGKFPVEDAKEEVQLFLGNAGAAMRPLTAAVTAAGGNATYVLDGVPRMRERPIGDLVVGLKQLGADVDCFLGTDCPPVRVNGIGGLPGGKVKLSGSISSQYLSALLMAAPLALGDVEIEIIDKLISIPYVEMTLRLMERFGVKAEHSDSWDRFYIKGGQKYKSPKNAYVEGDASSASYFLAGAAITGGTVTVEGCGTTSLQGDVKFAEVLEMMGAKVTWTETSVTVTGPPREPFGRKHLKAIDVNMNKMPDVAMTLAVVALFADGPTAIRDVASWRVKETERMVAIRTELTKLGASVEEGPDYCIITPPEKLNVTAIDTYDDHRMAMAFSLAACAEVPVTIRDPGCTRKTFPDYFDVLSTFVKN
notes: native maize plus T103A; E. coli BL21(DE3), Ni-NTA purified
With B2, in data set [2], the Km is 292 µM and the kcat was determined as 7.52 s⁻¹.

B3: Oryza sativa EPSPS with 868-H6 mutations, SEQ ID NO:11 (Oryza sativa; A482G/A67R/A69W/D368S/D468G/E457G/G168A/I274L/K149R/L164C/T345A/T427S/T507Q/V137Q/V504R) (protein)
chain: APARKWEEIVLQPIREISGAVQLPGSKSLSNRILLLSALSEGTTVVDNLLNSEDVHYMLEALKALGLSVEADKQAKRAVVVGCGGRFPVEKDAKEEVQLFCGNAATAMRPLTAAVTAAGGNATYVLDGVPRMRERPIGDLVVGLKQLGADVDCFLGTECPPVRVKGIGGLPGGKVKLSGSISSQYLSALLMAAPLALGDVEIEIIDKLISLPYVEMTLRLMERFGVKAEHSDSWDRFYIKGGQKYKSPGNAYVEGDASSASYFLAGAAITGGTVTVQGCGTASLQGDVKFAEVLEMMGAKVTWTSTSVTVTGPPREPYGKKHLKAVDVNMNKMPDVAMTLAVVALFADGPTAIRDVASWRVKESERMVAIRTELTKLGASVEEGPDYCIITPPGKLNITAIDTYGDHRMAMAFSLAACGDVPVTIRDPGCTRKTFPNYFDRLSQFVRN
As for B3, in data set [3], the Km was 28.9 µM, the kcat amounted to 4.88 s⁻¹ and the kcat/Km turned out to be 167000 M⁻¹ s⁻¹.

B4: Helianthus annuus EPSPS with 868-H6 mutations, SEQ ID NO:10 (Helianthus annuus; … (protein)
chain: ATTRKWSTAPEEIVLKPIKEISGTVNLPGSKSLSNRILLLAALAEGTTVVDNLLNSDDVHYMLGALRALGLNVEENGQIKRATVEGCGGRFPVGKEAKDEIQLFCGNAATAMRPLTAAVTAAGGNSSYILDGVPRMRERPIGDLVTGLKQLGADVDCFLGTNCPPVRVAANGGLPGGKVKLSGSISSQYLTALLMAAPLALGDVEIEIIDKLISLPYVEMTLKLMERFGVSVEHSDSWDKFYVRGGQKYKSPGNAYVEGDASSASYFLAGAAITGGTVTVEGCGTASLQGDVKFAEVLGQMGAEVTWTSNSVTVRGPPRNASGRGHLRPVDVNMNKMPDVAMTLAVVALYADGPTAIRDVASWRVKESERMIAICTELRKLGATVEEGPDYCVITPPGKLNVTAIDTYGDHRMAMAFSLAACGDVPVTIKDPGCTRKTFPDYFERLEQFTKH
Consider B4, for which, in data set [4], the Km was 37.2 µM, the kcat is 3.52 s⁻¹ and the kcat/Km is 100000 M⁻¹ s⁻¹.

The record behind these values is US11549123B2, “Plant EPSP synthases and methods of use” (PIONEER HI-BRED INTERNATIONAL, INC., priority 2015, dated 2023).
